Source: patent US20210163923A1

Biological target: Heat inactivated human AB serum labelled with Dylight 633 (human)
Test: flow cytometry, IgG displayed on HEK293 cells, anti-Fc PE and Dylight 633 labelled human AB serum

% cells double positive for antibody and human serum binding | Substance
12.3% | Vesencumab (antibody)
3.7% | Nivolumab displayed from pINT17-BSD (antibody)
